Measured values as given in the RNAGym collection of RNA variant scans (doi:10.7554/elife.80360).

B1: HDV Ribozyme (parent)
chain: GGCCGGCAUGGUCCCAGCCUCCUCGCUGGCGCCGGCUGGGCAACAUUCCGAGGGGACCGUCCCCUCGGUAAUGGCGAAUGGGACCCA

Variants of: B1
Experiment: self-cleavage, relative activity (ratio to wild type); higher = more cleavage; co-transcriptional
With U9G G73A the self-cleavage was 0.665. Work on U9G G73C yielded a self-cleavage of 0.767. Work on U9C G35U yielded a self-cleavage of 0.135. For U9C G35A, the self-cleavage was 0.394. A8U A51U gave a self-cleavage of 0.787. Variant A8U A51G has a self-cleavage of 0.767. Work on A8C U79A yielded a self-cleavage of 0.506. Variant U9C A70U has a self-cleavage of 0.831. A8C G54U showed a self-cleavage of 0.618. In the case of A8C G54A, the self-cleavage is reported as 0.759. For U9A G40C, the self-cleavage was 0.325. A8G G80C showed a self-cleavage of 0.172. For U9C G73U, the self-cleavage was 0.383. For A8C G50A, the self-cleavage was 0.96. Work on U9A C63G yielded a self-cleavage of 0.502. A8G C86U gave a self-cleavage of 1.11. G10A C30G showed a self-cleavage of 0.0777. A8C G73U gave a self-cleavage of 0.264. Variant U9C G25U has a self-cleavage of 0.104. Work on U9C A87G yielded a self-cleavage of 1.12. In the case of U9A U23C, the self-cleavage is reported as 1.08. For A8G U65A, the self-cleavage was 0.89. Variant U9G C63G has a self-cleavage of 1.17. In the case of U9C A51C, the self-cleavage is reported as 1.49. In the case of A8U G35C, the self-cleavage is reported as 0.0639. Work on A8G A45G yielded a self-cleavage of 0.9. Variant U9G U69A has a self-cleavage of 0.831. Work on U9G U69G yielded a self-cleavage of 0.767. In the case of U9C U47A, the self-cleavage is reported as 1.11. With A8U C66A the self-cleavage was 1.06. In the case of U9A G55U, the self-cleavage is reported as 0.895. A8G C49A showed a self-cleavage of 0.939. A8G A56C showed a self-cleavage of 0.867. A8G G28A showed a self-cleavage of 0.166. A8G G28C gave a self-cleavage of 0. In the case of A8G C19G, the self-cleavage is reported as 0.0594. A8G G35U showed a self-cleavage of 0.306. U9A G28A showed a self-cleavage of 0.138. A8G U37A showed a self-cleavage of 0.147. With U9G C48G the self-cleavage was 0.997. U9G C48A gave a self-cleavage of 1.25. U9G U47G showed a self-cleavage of 1.21. Work on A8G G40A yielded a self-cleavage of 1.08. Variant U9C has a self-cleavage of 1.04. For U9A, the self-cleavage was 1.04. Work on U9G yielded a self-cleavage of 1.02. With U9G G81A the self-cleavage was 0.8. With A8U C84G the self-cleavage was 0.462. A8U G31U showed a self-cleavage of 0.0475. With U9G G55A the self-cleavage was 0.962. In the case of U9G A70U, the self-cleavage is reported as 0.739. For U9G A70C, the self-cleavage was 0.886. Variant U9A U12A has a self-cleavage of 0.361. With U9G C58U the self-cleavage was 1.2. For A8C C61A, the self-cleavage was 0.931. A8G G38A gave a self-cleavage of 0.0959. With A8G G38U the self-cleavage was 0.0405. With U9A G31C the self-cleavage was 0.287. For U9G A45C, the self-cleavage was 0.712. A8G G52C gave a self-cleavage of 1.26. In the case of A8G G52A, the self-cleavage is reported as 0.719. In the case of U9G G40U, the self-cleavage is reported as 1.06. Variant U9C G74C has a self-cleavage of 0.277. Work on A8U C57A yielded a self-cleavage of 1.05. For A8U C57G, the self-cleavage was 1.07. In the case of U9A U79A, the self-cleavage is reported as 0.923. Variant U9G U72G has a self-cleavage of 0.776. For U9G U72A, the self-cleavage was 0.633. Work on A8G C64U yielded a self-cleavage of 1.07. Work on A8G C64G yielded a self-cleavage of 0.7. For G10A A77U, the self-cleavage was 0.169. With G10A A77C the self-cleavage was 0.237. Work on U9C A56C yielded a self-cleavage of 1.06. With A8U C86G the self-cleavage was 0.554. For A8U C86U, the self-cleavage was 0.997. Work on A8G C32A yielded a self-cleavage of 0.0852. A8U G34C showed a self-cleavage of 0. Work on U9C G53C yielded a self-cleavage of 1.15. Work on A8U A83C yielded a self-cleavage of 0. With A8U A83G the self-cleavage was 0.746. For A8C U60G, the self-cleavage was 0.554. U9C C57U showed a self-cleavage of 0.95. Work on G10A C15A yielded a self-cleavage of 0.208. G10A C15U showed a self-cleavage of 0.332. U9G G17U showed a self-cleavage of 0.415. Variant U9G G17C has a self-cleavage of 0.166. Work on A8G U46A yielded a self-cleavage of 0.723. Variant A8G U46G has a self-cleavage of 0.623. A8U U47C gave a self-cleavage of 0.68. U9C C63U gave a self-cleavage of 0.987. Work on U9C C63G yielded a self-cleavage of 0.831. Variant U9G G29A has a self-cleavage of 0.123. U9G G29C gave a self-cleavage of 0. With U9G A78U the self-cleavage was 0.0692. With A8U G59U the self-cleavage was 1.04. In the case of U9G C84A, the self-cleavage is reported as 0.554. For A8U U9G, the self-cleavage was 0.997. Work on A8U G25C yielded a self-cleavage of 0.277. U9A G29C gave a self-cleavage of 0. A8G G67U gave a self-cleavage of 0.978. In the case of U9G A56C, the self-cleavage is reported as 0.462. A8U G40A gave a self-cleavage of 0.892. For A8G C62U, the self-cleavage was 0.95. With A8G C62G the self-cleavage was 0.489. U9C G54U showed a self-cleavage of 0.937. In the case of U9C G54C, the self-cleavage is reported as 1.11. Variant U9G U37G has a self-cleavage of 0.111. For U9A G39C, the self-cleavage was 0.178. U9A G39U showed a self-cleavage of 0.917. Work on A8G U20A yielded a self-cleavage of 0.151. A8G U20G gave a self-cleavage of 0.151. For A8U G10C, the self-cleavage was 0.639. For A8C G28C, the self-cleavage was 0. With U9A C15A the self-cleavage was 0.677. With A8U C32U the self-cleavage was 0.554. Variant U9C G39A has a self-cleavage of 0.567. With U9G G34A the self-cleavage was 0.344. With U9A C19U the self-cleavage was 0.113. With U9A C19G the self-cleavage was 0.0665. U9G U46C showed a self-cleavage of 0.748. With U9C C48A the self-cleavage was 0.911. Work on A8C G17U yielded a self-cleavage of 0.287. In the case of U9A C66U, the self-cleavage is reported as 1.01. For A8G G10A, the self-cleavage was 0.369. With U9C G81C the self-cleavage was 0.598. U9G G10A gave a self-cleavage of 1.25. Variant A8U G74U has a self-cleavage of 0.173. Work on U9C U72A yielded a self-cleavage of 0.587. For A8G C36U, the self-cleavage was 0.727. With U9A C49A the self-cleavage was 0.554. U9A C49G showed a self-cleavage of 0.88. Variant U9A G35U has a self-cleavage of 0.264. In the case of A8U U23C, the self-cleavage is reported as 0.532. U9G C86U gave a self-cleavage of 1.42. U9G C86G showed a self-cleavage of 1.33. A8G C41U showed a self-cleavage of 0.917. For A8G C18G, the self-cleavage was 0. Work on A8G U69A yielded a self-cleavage of 0.942. For U9C C33G, the self-cleavage was 0.249. Variant U9G C33U has a self-cleavage of 0.87. Variant A8U G81U has a self-cleavage of 0.175. U9C C30A showed a self-cleavage of 0.458. G10A C24U gave a self-cleavage of 0.338. Variant G10A C24G has a self-cleavage of 0.061. For U9G G38A, the self-cleavage was 0.156. In the case of U9A A83C, the self-cleavage is reported as 0.731. U9C A45U gave a self-cleavage of 0.554. Work on U9A U37A yielded a self-cleavage of 0. In the case of U9A U37G, the self-cleavage is reported as 0.208. In the case of U9C U20G, the self-cleavage is reported as 0.443. With A8U G67U the self-cleavage was 0.898. With A8U G67A the self-cleavage was 0.855. For A8C U20G, the self-cleavage was 0.175. A8C U72G gave a self-cleavage of 0.332. Work on A8C U72A yielded a self-cleavage of 0.375. A8U C33G gave a self-cleavage of 0.0536. Variant A8U C33U has a self-cleavage of 0.453. Work on U9C U23A yielded a self-cleavage of 1.13. In the case of U9C U23G, the self-cleavage is reported as 0.831. Work on A8U A42G yielded a self-cleavage of 0.111. Work on U9A G76U yielded a self-cleavage of 1.02. Variant A8G C61A has a self-cleavage of 0.886. In the case of U9G C41A, the self-cleavage is reported as 0.831. U9G C41U showed a self-cleavage of 0.997. With U9C A16G the self-cleavage was 1.51. A8U A16G showed a self-cleavage of 0.684. G10A C19U showed a self-cleavage of 0.0326.
